According to the DeepSol protein solubility set:

Assay: soluble on expression in E. coli; label from the status in PepcDB or PDB records

| Sequence | soluble on expression in E. coli |
| --- | --- |
| MTMVQVTLEVNGRQVAHEAPPRMHLGDFLRDQARLTGTHLGCEHGVCGACTVLVDGQPVRSCITYAVACEGRQVTTIEGYDGDPVMARLRAAFTKYHALQCGYCTPGMLTTSRDIVLRLPDADEARVRVELSGNLCRCTGYMGIVGAVMSVLRDLREQPDAAVQALRAAAADGRLPAPRGEQPIAFQPFTPSAPAAAQAAPRPAAAASPASGKGNQIVDAFTVPFPAAEVWAFMVDLPAVAACLPGAVIEETDGQRVKGKIAIKFGPMAAAFNGAARLERDEEAMRAVFRGAGQDSLSQSRATGDIAYQVEAVSENETRVKVDLQYALQGPLAQFSRSGLVQDFVRRMIADFGKNVTARLRQPGGEALPQAQFNPVAMFFSVLWMRVKRWFGRGGLEHHHHHH | not soluble |
| MKRTPLFEKHVELGAKMVDFAGWEMPLYYTSIFEEVMAVRKSVGMFDVSHMGEFLVKGPEAVSFIDFLITNDFSSLPDGKAIYSVMCNENGGIIDDLVVYKVSPDEALMVVNAANIEKDFNWIKSHSKNFDVEVSNISDTTALIAFQGPKAQETLQELVEDGLEEIAYYSFRKSIVAGVETLVSRTGYTGEDGFELMLEAKNAPKVWDALMNLLRKIDGRPAGLGARDVCRLEATYLLYGQDMDENTNPFEVGLSWVVKLNKDFVGKEALLKAKEKVERKLVALELSGKRIARKGYEVLKNGERVGEITSGNFSPTLGKSIALALVSKSVKIGDQLGVVFPGGKLVEALVVKKPFYRGSVRREV | soluble |
| MFLLKQIGVIRSPFKSPSECPFQGRFSQERFTIELFPEYEEGLKDIETCTHLIVLYWLDRANRDRLIAIPPFDKREHGVFATRSPHRPNPIGFSVVKLLEVRGRELVVEGLDAVDGTPVVDIKPYSSKIDCVENARIGWFEEV | soluble |
| MCVGVPMTVVTSDNGTALCERRGEQRRVSTLLIGEVAVGDRVLVFIDNAMRLLEPDEARLIDDALDGLAAAMQGRDFEHLFADLIDREPQLPAFLRNDVVPPHG | not soluble |
| MKVRASVKRICDKCKVIRRHGRVYVICENPKHKQRQG | soluble |
| MLDLTTNPIDLTRALVDIESPSHYEKNIADAIEQALHAIDNVEVLRHGNTLVARTHRGLGERVILAGHIDTVPIADNVPSHMEGDVMFGCGTVDMKSGMAVYLHAFATLANHPALAKDLTVVCYEGEEVASEYNGLGHVQAAHPDWLSGDLALLGEPSGAVIEAGCQGTIRLRVTAHGVRAHSARSWLGDNAMHKLAPVITNIAQYHAQEMLVDGCLYHEGLNIVHCESGVATNTIPDEAWMFVNFRFAPNRSVDEALAHMLEVLDLPEGVTYDIDDAVPGARPGLDRPAAAALLEATGGKFRAKYGWTDVSRFSEIGVPAVNFGPGDPAYCHKKDEQCPVSMITEVSRTLVHYLTSTNSQTTGA | not soluble |
| MENPLQKARILVNQLEKYLDHYAKEYDVEHLAGPQGHLVMYLYKHPDKDMSIKAVEEILHISKSVASNLVKRMEKNGFIAIVPSKTDKRVKYLYLTHLGKKKATQFEIFLEKLHSTMLAGITKEEIRTTKKVIRTLAKNMAMENLD | soluble |
| MGSDKIHHHHHHMIIDRLFDSVEKKGHVCLGLDTDITYVPEEFCKKFNSIEDAIFNFNKKIIDATLDVVSCYKVQIAYYEAYGLKGLLAYKRTLEYLREKKAIAIADIKRGDIAKTAEMYAKAHFEGDFEADFVTLNPYMGLDGIEPYMPYIEKMEKGLFILLRTSNKGAYDIQYIKTQGGKNVYDEVGEKIYDLGQKATGRSKYSSIGAVVGCTHVEEGVEIRNKFKNMFFLIPGYGAQGGTAKEVSLYLREGNGGVVNSSRGILLAYKKEENGEKIFDECARLAAINMRDEIRKTL | not soluble |
| MPVDLSKWSGPLSLQEVDEQPQHPLHVTYAGAAVDELGKVLTPTQVKNRPTSISWDGLDSGKLYTLVLTDPDAPSRKDPKYREWHHFLVVNMKGNDISSGTVLSDYVGSGPPKGTGLHRYVWLVYEQDRPLKCDEPILSNRSGDHRGKFKVASFRKKYELRAPVAGTCYQAEWDDYVPKLYEQLSGK | soluble |
| MFSAKKRDKCIGEMSEKQLDLLVIGGGITGAGIALDAQVRGIQTGLVEMNDFASGTSSRSTKLVHGGLRYLKQFEIKLVAEVGKERAIVYENAPHVTTPEWMLLPIFKDGTFGKFSTSLGLKVYDYLADVRKDERRYMLNEKQTLEKEPLLRKENLKGGGIYVEYRTDDARLTLEIMKEAVARGAVALNYMKVESFIYDQGKVVGVVAKDRLTDTTHTIYAKKVVNAAGPWVDTLREKDRSKHGKYLKLSKGVHLVVDQSRFPLRQAVYFDTESDGRMIFAIPREGKTYIGTTDTFYDKDIASPRMTVEDRDYILAAANYMFPSLNLTADDVESSWAGLRPLIHEEGKKASEISRKDEIFFSDSGLISIAGGKLTGYRKMAERTVDAVAQGLNVNEPCTTAAIRLSGGLAEGAQGFPRFLDEASRKGAKLGFDADEVRRLAKLYGSNVDHVLNYAYEGKEEAEHYGLPALLLGQLQYGVEQEMVATPLDFFVRRTGALFFNISLVHQWKEAVLRWMAEEFSWTEEEKTRFQNELETELKMAVDPLFQVEPTTVLEHHHHHH | soluble |
| MSGESVIEFTGFIKACRLFRENRLAEAEAVCTNLLRKNPLDQATWALKMQCLSDSTYVDELENEDMGLAETFLDQNVIAPNARPGTSFARPKTSAKGVNPILRPTTNAGRPLSGVVRPQSSFKSGSMDQAVRTARTAKTARAVSSTSARNMRLGTASMAAGADGEFVNLARLNIDKYAADPQVNRQLFEYVFYYLNDIRVAHQIAGTASKAAGFEDYYWKNQLAKCYLRLGMLQDATKQLQSSLEQKKLIETFALLSKAYNRVDQPMAALKTYSAGLEVFPENVTMLTGMARVQEALGEYDESVKLYKRVLDAESNNIEAIACVATTYYYGGKPELAMRYYRRILQMGVSSPELFLNIGLCCMAAQQFDFALSSILRAQSTMTDDVAADVWYNIGQILVDIGDLVSAARSFRIALSHDPDHSESLVNLGILKHREGKIDEARSLYSSATSKNPYMFEGNYNLGLVSFTQGKYHECRELIEKALAAFPEHEHCKKILNHLKPLYESI | not soluble |
| MGSANGKTLGEVWKRELNLLDKRQFELYKRTDIVEVDRDTARRHLAEGKVDTGVAVSRGTAKLRWFHERGYVKLEGRVIDLGCGRGGWCYYAAAQKEVSGVKGFTLGRDGHEKPMNVQSLGWNIITFKDKTDIHRLEPVKCDTLLCDIGESSSSSVTEGERTVRVLDTVEKWLACGVDNFCVKVLAPYMPDVLEKLELLQRRFGGTVIRNPLSRNSTHEMYYVSGARSNVTFTVNQTSRLLMRRMRRPTGKVTLEADVILPIGTRSVGSSSHHHHHH | soluble |
| QVQLVESGGGLVQPGGSLRLSCAASGFTFNSYWINWVRQAPGKGLEWVSGIAYDSSNTLYADSVKGRFTISRDNSKNTLYLQMNSLRAEDTAVYYCARGLGAFHWDMQPDYWGQGTLVTVSSASTKGPSVFPLAPSSKSTSGGTAALGCLVKDYFPEPVTVSWNSGALTSGVHTFPAVLQSSGLYSLSSVVTVPSSSLGTQTYICNVNHKPSNTKVDKKVEPKSCDKTH | soluble |
| MASSGYLYSLVAEDGVWQAFVSKAKLSRERAVALHKALRELTALLAIADRGRLQKGLKGREKFLKVFPRLKAELVEHISQLHALADHAEKLHRGCTISNVVADSFSAASDILSLLGLFLAPVTAEGSLVLSATGLGLGVAATVTDVATSIVEETSRVLDEVEAAPTGTHVLGEAGTSVDRIASKVPQATRDITRDLEALEQHMNALRLVRANPRLEEDARILATTGSISAQRAMQVRASLKGTPLAMSNEARIQRATAAGAALWSDVDSLVKESKHLYEGSASESAEALRKLARELEEKLEGLMEFYKTI | soluble |
| MSLAQFYSAKRRVTTRQIITVKVNDLDSFGQGVARHNGKALFIPGLLPEESAEVIITEDKKQFARARVSRRLNDSPERETPRCPHFGVCGGCQQQHVSIALQQRSKSAALARLMKHEVNDIIAGAPWGYRRRARLSLNCPPDKPLQMGFRKAGSSDIVNVEQCPVLAPQLAALLPRIRACLASLHGTRHLGHVELVQAGSGTLMILRHTAPLSAADKEKLERFSHSEGLSLFLAPFSEILETVSGEAPWYDSHGLRLAFSPRDFIQVNEAVNQQMVARALEWLDVRAEDRVLDLFCGMGNFTLPLATRAASVIGVEGVPALVEKGRENAIRNGLHNVTFFHENLEEDVTKQPWAKNGFDKVLLDPARAGATGVMRHIIKLKPIRIVYVSCNPATLARDSEALVNAGYEVTRLAMLDMFPHTGHLESMVLFERMEGHHHHHH | soluble |
| MARLSDLIEAFIKQLIDDTDGTIEIQRNELASQFNCVPSQINYVIDTRFTTERGYYVESRRGGGGYIKITRVSIGHEGKNYLMHIINSMGDSISQQSAHVFINNFVDHNVVTEKEAMLLKAATSDKALAAVPVESRGQIRASILKNMLVCLLV | soluble |
| MGSDKIHHHHHHMKRQAKIEIQNALVDLMAEYPFQEISTKMICAYCNINRSTFYDYYKDKFDLLDTINSKHKEKFQFLLSALHHNFENIKQDKLKLYKFFIIIAKYIKHNEQFFKDILVTYPMKTLFIDYINLARDYYQQIMNDYSTTVTNKQLYVTYIIGGQAGVFINWLSNGCNESPEEVADILLANTIKLQIQ | not soluble |
| MVRKALDGQEVVTASAETLRVEALEVRLGENLVLKEVDLAVEPGEIVALLGPSGSGKTTLLRAVAGLLRPTGGRILLGKEVFFDGKKGVFLPPERRNLGLVFQSYALWPQRTVYENVAYGLRLRKVPEKAVRERVLGLLDRLGLTGLERRYPGALSGGQQQRVSLARALAYDPKLLLLDEPLSNLDAKLRDQARVWLRETLKATGKAALFVTHDQGEAMAIADRIALLNEGRMEQVGTPEELYRNPKTLFVADFLGNPNVVEALVVGLEGSTARLELAGFPLRARAMGALVPGRLAKLVLRPEALRPAGVGEVNALEGALAHSLYLGSHYEHWVRVGDALLRFYSPLPLGEARVRLAVDPEAALAYPG | soluble |
| MGSDKIHHHHHHMIKICSVAFLSLLLSASSLFAQTKTFAGADYSQGIVFVMENNQMVWKHKAPDSNDLWILPNGNILFTTGHGVLEMTRQNDTIFHYESKSPVFACQRLKNGNTFVGECVTGRMLEISPKGKIVKETCILPKGVKDGGFAFMRNARRLDNGHFLVAHYGDQCVKEYDANGKVVWKLDVPGGPHSLTRLPNGHTLIAVADKDQNPRLIEVTPEGKTIWEISNADIPGKPLKFLGGFQYFSDGRFLITNWTGHVNPKEKVHLLLVDRQKNVLYSLENTPELQTMSSVYSTDKPAGVASYH | not soluble |
| MSLAKPIEAHTVSPVNPNAQQTTKTVMNWLAHLPNRTENRVLSGAFGGYSHDTFSMAEADRIRSATGQSPAIYGCDYARGWLETANIEDSIDVSCNGDLMSYWKNGGIPQISLHLANPAFQSGHFKTPITNDQYKKILDSSTVEGKRLNAMLSKIADGLQELENQGVPVLFRPLHEMNGEWFWWGLTSYNQKDNERISLYKQLYKKIYHYMTDTRGLDHLIWVYSPDANRDFKTDFYPGASYVDIVGLDAYFQDAYSINGYDQLTALNKPFAFTEVGPQTANGSFDYSLFINAIKQKYPKTIYFLAWNDEWSAAVNKGASALYHDSWTLNKGEIWNGDSLTPIVEEGHHHHHH | soluble |
| MTFYDHLHASPYTWERVGNLLADATAADVERSLAYRRRTIQDFITLISPAAIPYLEQMARQAHALTVERFGHTMQLYIPLYLSNICSNACVYCGFSRSNKIHRRRLTAEEVDREAEAILRLGYKHLLLVSGESEKATPASYYEKMTRRLRPLFSQLSLEVQPLTTEEYARLHEAGIGAVYVYQETYNEQAYPTYHPAGRKADYRYRLETPDRIGRANMQKIGIGALLGLENWRVDSVFTALHLRYLEQTYWKSKFSISLPRLRPATGGWEPKDPIDDVGMVQLITAFRLLDKDVEISLSTRESREFRDHVMPLGITSVSAGSKTEPGGYAEENADLEQFAINDARSPAEMAADLRRLGYEPVWKDWDAFM | not soluble |
